Measurements as given in patent US20250277025A1.

Target: human CLDN18.2 expressed on cells (human)
Experiment: cell-based or functional assay

Human IgG1 isotype antibody
ADCC (PBMC) on KATOIII CLDN18.2 cells, LDH: max (% cytotoxity) (run A): 0.3%
ADCC (PBMC) on KATOIII CLDN18.2 cells, LDH: max (% cytotoxity) (run B): -5.51%
ADCC (PBMC) on KATOIII CLDN18.2 cells, LDH: max (% cytotoxity) (run C): -7.64%
ADCC (PBMC) on NCI-N87 CLDN18.2 cells, LDH: max (% cytotoxity) (run A): -6.73%
ADCC (PBMC) on NCI-N87 CLDN18.2 cells, LDH: max (% cytotoxity) (run B): -11.7%
ADCC (PBMC) on NCI-N87 CLDN18.2 cells, LDH: max (% cytotoxity) (run C): -9.22%
